The supplement of paper PMC7877785
± gives the uncertainty stated by the source.

Assay: self-splicing fitness, log relative to wild type (ln ratio); higher = more splicing; Tetrahymena group I intron in knt gene, E. coli kanamycin selection, DiMSum; sequences stand for … in CUCUCU…GGAGGGAAAAGUUAUCAGGCAUGCACCUGGUAGCUAGUCUUUAAACCAAUAGAUUGCAUCGGUUUAAAAGGCAAGACCGUCAAAUUGCGGGAAAGGGGUCAACAGCCGUUCAGUACCAAGUCUCAGGGGAAACUUUGAGAUGGCCUUGCAAAGGGUAUGGUAAUAAGCUGACGGACAUGGUCCUAACCACGCAGCCAAGUCCUAAGUCAACAGAUCUUCUGUUGAUAUGGAUGCAGUUCACAGACUAAAUGUCGGUCGGGGAAGAUGUAUUCUUCUCAUAAGAUAUAGUCGGACCUCUCCUUAAUGGGAGCUAGCGGAUGAAGUGAUGCAACACUGGAGCCGCUGGGAACUAAUUUGUAUGCGAAAGUAUAUUGAUUAGUUUUGGAGUACUCGUGGUCG
In short: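 Pooled colonies went to amplicon sequencing on an Illumina HiSeq 2500 after six replicate transformations. The plates were LB agar with 100 μg/mL carbenicillin, 50 μM IPTG and 0.2% rhamnose, with or without 25 μg/mL kanamycin, incubated overnight at 37°C or 30°C. The E. coli BL21(DE3) library had all eight P1ex-region intron nucleotides randomised, the intron placed in the knt kanamycin-resistance gene on pET-22b(+). DiMSum fitness is the error-weighted combination of replicate fold changes, kanamycin against none, normalised to wild type.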

CUAGAGCAAUAUUACGUAAC
self-splicing fitness (ln) (30 °C): -4.96 ± 0.38 | self-splicing fitness (ln) (37 °C): -2.32 ± 0.19

UGAGAGCAAUAUUACGAUGU
self-splicing fitness (ln) (30 °C): -3.27 ± 0.25

AUUAAGCAAUAUUACGUUUG
self-splicing fitness (ln) (30 °C): -3.11 ± 0.15 | self-splicing fitness (ln) (37 °C): -1.56 ± 0.16

GCAUAGCAAUAUUACGGUAA
self-splicing fitness (ln) (30 °C): -2.31 ± 0.16 | self-splicing fitness (ln) (37 °C): -0.658 ± 0.15

UGACAGCAAUAUUACGCAUG
self-splicing fitness (ln) (30 °C): -1.03 ± 0.055 | self-splicing fitness (ln) (37 °C): -0.328 ± 0.061

CAGUAGCAAUAUUACGGGUA
self-splicing fitness (ln) (30 °C): -3.45 ± 0.4 | self-splicing fitness (ln) (37 °C): -1.01 ± 0.18

ACUGAGCAAUAUUACGCCUU
self-splicing fitness (ln) (30 °C): -1.55 ± 0.2 | self-splicing fitness (ln) (37 °C): -0.418 ± 0.24

AUAUAGCAAUAUUACGCAAG
self-splicing fitness (ln) (30 °C): -2.34 ± 0.22 | self-splicing fitness (ln) (37 °C): -0.955 ± 0.21

CCAUAGCAAUAUUACGCUCU
self-splicing fitness (ln) (30 °C): -4.23 ± 0.3 | self-splicing fitness (ln) (37 °C): -2.85 ± 0.24

GAUCAGCAAUAUUACGGUAA
self-splicing fitness (ln) (30 °C): -0.559 ± 0.075 | self-splicing fitness (ln) (37 °C): 0.194 ± 0.07

UGCUAGCAAUAUUACGCCAA
self-splicing fitness (ln) (37 °C): 0.0147 ± 0.24

CCCCAGCAAUAUUACGUUUU
self-splicing fitness (ln) (30 °C): -4.12 ± 0.14 | self-splicing fitness (ln) (37 °C): -2.55 ± 0.11

UACAAGCAAUAUUACGUCAA
self-splicing fitness (ln) (30 °C): -3.18 ± 0.2 | self-splicing fitness (ln) (37 °C): -1.67 ± 0.13

AGCGAGCAAUAUUACGUAAG
self-splicing fitness (ln) (37 °C): -1.76 ± 0.37

UCUAAGCAAUAUUACGUAAC
self-splicing fitness (ln) (30 °C): -4.19 ± 0.24 | self-splicing fitness (ln) (37 °C): -2.94 ± 0.24

AGCUAGCAAUAUUACGUAUC
self-splicing fitness (ln) (30 °C): -3.55 ± 0.18 | self-splicing fitness (ln) (37 °C): -3.09 ± 0.24

UUAAAGCAAUAUUACGGGGA
self-splicing fitness (ln) (30 °C): -1.02 ± 0.068 | self-splicing fitness (ln) (37 °C): 0.216 ± 0.1

GCCUAGCAAUAUUACGCCAC
self-splicing fitness (ln) (30 °C): -2.82 ± 0.26 | self-splicing fitness (ln) (37 °C): -2.2 ± 0.23

UCACAGCAAUAUUACGAGAU
self-splicing fitness (ln) (30 °C): -4.39 ± 0.25 | self-splicing fitness (ln) (37 °C): -2.85 ± 0.24

AUUCAGCAAUAUUACGGUGC
self-splicing fitness (ln) (30 °C): -2.13 ± 0.16 | self-splicing fitness (ln) (37 °C): -0.156 ± 0.14

AAGUAGCAAUAUUACGAGCU
self-splicing fitness (ln) (30 °C): -0.679 ± 0.057 | self-splicing fitness (ln) (37 °C): -0.289 ± 0.087

AUAGAGCAAUAUUACGCUAU
self-splicing fitness (ln) (30 °C): -2.49 ± 0.18 | self-splicing fitness (ln) (37 °C): -2.34 ± 0.3

UCGGAGCAAUAUUACGUGUG
self-splicing fitness (ln) (30 °C): -3.08 ± 0.18 | self-splicing fitness (ln) (37 °C): -1.63 ± 0.1

CUUUAGCAAUAUUACGGGCA
self-splicing fitness (ln) (30 °C): -3.41 ± 0.26 | self-splicing fitness (ln) (37 °C): -2.67 ± 0.21

UCCUAGCAAUAUUACGCCCG
self-splicing fitness (ln) (37 °C): -2.38 ± 0.42

UCCAAGCAAUAUUACGGUCG
self-splicing fitness (ln) (30 °C): -2.37 ± 0.097 | self-splicing fitness (ln) (37 °C): -0.886 ± 0.099

UUCCAGCAAUAUUACGCUCA
self-splicing fitness (ln) (30 °C): -0.327 ± 0.068 | self-splicing fitness (ln) (37 °C): 0.143 ± 0.089

ACACAGCAAUAUUACGUUUA
self-splicing fitness (ln) (30 °C): -2.9 ± 0.11 | self-splicing fitness (ln) (37 °C): -1.99 ± 0.088

CUAAAGCAAUAUUACGCGUC
self-splicing fitness (ln) (30 °C): -3.94 ± 0.31 | self-splicing fitness (ln) (37 °C): -2.17 ± 0.25

UUAAAGCAAUAUUACGAUGA
self-splicing fitness (ln) (30 °C): 0.452 ± 0.081 | self-splicing fitness (ln) (37 °C): 0.681 ± 0.11

AGUAAGCAAUAUUACGGAUG
self-splicing fitness (ln) (30 °C): -3.1 ± 0.25 | self-splicing fitness (ln) (37 °C): -2.2 ± 0.26

AACUAGCAAUAUUACGAUGC
self-splicing fitness (ln) (30 °C): -1.25 ± 0.12 | self-splicing fitness (ln) (37 °C): -2.06 ± 0.25

ACGUAGCAAUAUUACGACAG
self-splicing fitness (ln) (30 °C): -2.56 ± 0.13 | self-splicing fitness (ln) (37 °C): -0.828 ± 0.13

UUUGAGCAAUAUUACGAUUA
self-splicing fitness (ln) (30 °C): -2.13 ± 0.41 | self-splicing fitness (ln) (37 °C): -2.41 ± 0.36

GGCCAGCAAUAUUACGUCUA
self-splicing fitness (ln) (30 °C): -2.43 ± 0.084 | self-splicing fitness (ln) (37 °C): -1.29 ± 0.078

AAUCAGCAAUAUUACGCAUU
self-splicing fitness (ln) (30 °C): -1.1 ± 0.072 | self-splicing fitness (ln) (37 °C): -0.498 ± 0.086

CUUGAGCAAUAUUACGAGCU
self-splicing fitness (ln) (30 °C): -1.6 ± 0.46

AUGGAGCAAUAUUACGUUUC
self-splicing fitness (ln) (30 °C): -3.47 ± 0.21 | self-splicing fitness (ln) (37 °C): -2.68 ± 0.26

GACAAGCAAUAUUACGAGUA
self-splicing fitness (ln) (30 °C): -2.1 ± 0.12 | self-splicing fitness (ln) (37 °C): -0.706 ± 0.098

GAAUAGCAAUAUUACGAACG
self-splicing fitness (ln) (30 °C): -1.64 ± 0.1 | self-splicing fitness (ln) (37 °C): -0.336 ± 0.11

CCAAAGCAAUAUUACGGGAA
self-splicing fitness (ln) (30 °C): -3.01 ± 0.18 | self-splicing fitness (ln) (37 °C): -3.66 ± 0.3

UACAAGCAAUAUUACGAAAU
self-splicing fitness (ln) (30 °C): -2.52 ± 0.16 | self-splicing fitness (ln) (37 °C): -3.01 ± 0.29

GGAUAGCAAUAUUACGUGUA
self-splicing fitness (ln) (30 °C): -2.33 ± 0.13 | self-splicing fitness (ln) (37 °C): -2.18 ± 0.12

AGCCAGCAAUAUUACGAUAU
self-splicing fitness (ln) (30 °C): -3.25 ± 0.16 | self-splicing fitness (ln) (37 °C): -1.83 ± 0.14

AAUUAGCAAUAUUACGUCCG
self-splicing fitness (ln) (30 °C): -1.12 ± 0.18 | self-splicing fitness (ln) (37 °C): -0.444 ± 0.26

CUUAAGCAAUAUUACGGACU
self-splicing fitness (ln) (30 °C): -3.14 ± 0.15 | self-splicing fitness (ln) (37 °C): -1.62 ± 0.17

AACCAGCAAUAUUACGAGGU
self-splicing fitness (ln) (30 °C): -3.14 ± 0.16 | self-splicing fitness (ln) (37 °C): -2.53 ± 0.16

CAGAAGCAAUAUUACGGGGU
self-splicing fitness (ln) (30 °C): -2.98 ± 0.19 | self-splicing fitness (ln) (37 °C): -2.34 ± 0.21

UUAAAGCAAUAUUACGUCCA
self-splicing fitness (ln) (30 °C): -0.0955 ± 0.086 | self-splicing fitness (ln) (37 °C): 0.343 ± 0.11
